Data reported in patent US20040156820A1, “Adjuvant combination formulations” (priority 2000, published 2004).

How the values were obtained:
[1] = format: in vivo, cynomologous monkeys (Macaca fagscicularis); settings: cynomologous monkeys, five immunizations weeks 0, 4, 8, 18, 23
Protocol: Immunizations: All intranasal immunizations were delivered with a 100 μl metered dose nasal spray device. All intramuscular injections were given in the quadriceps muscle with needle and syringe. All animals were immunized on a schedule of 0, 4, 8, 18 and 23 weeks.
Group 1: 1000 μg C4 (E9V)-V389.6P peptide in sterile normal saline, final volume 200 μl (100 μl each nostril).
Group 2: 1000 μg C4 (E9V)-V389.6P peptide, 50 μg 529 SE, and 250 μg human GM-CSF, final oil concentration 1%, final volume 1.0 ml (500 μl each quadriceps by IM injection).
All animals were closely monitored for changes in body temperature during the 24 hours immediately following each administration of the immunogen.

Aβ1-42 peptide = experiment: Reciprocal anti-Aβ1-42 IgG endpoint total and subclass titers (Example 4); format: in vivo; settings: Swiss-Webster mice n=10, 30 μg Aβ1-42 s.c. week 0 and 3
Protocol: Formulations were mixed by vortex immediately prior to immunization.
After incubation, wells were washed, and developed with ABTS. Wells were read at 405 nm. Titers were standardized using control sera.
The same protocol was followed for analysis of […] peptide-specific antibody and subclass distribution, except that a concentration of 0.3 μg/ml per microtiter plate was used.
Outbred Swiss-Webster mice were divided into groups of ten mice each. Each group received 30 μg of Aβ1-42 peptide, which corresponds to an internal 42 amino acid long region of APP. […] Mice were immunized subcutaneously in the rump with a total volume of 0.2 ml, divided equally into each of two sites at the base of the tail/rump. Immunizations were administered at week 0 and week 3.
Mice were bled at days 0, 20, 35 and 70. Serum was analyzed from individual mice. Reciprocal endpoint anti-Aβ1-42 peptide IgG endpoint total class and subclass titers were measured from individual sera (n=10 Swiss-Webster) at week 5 and at week 10.

Sequence of Aβ1-42 peptide (P05067 672-713): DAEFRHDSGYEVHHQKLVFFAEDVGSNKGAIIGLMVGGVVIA

Question: Which “Immunogen safety and tolerability” value [1] does the source give for `CC[C@H](C)[C@H](NC(=O)[C@H](CO)NC(=O)[C@H](CC(C)C)NC(=O)[C@H](CCCNC(=N)N)NC(=O)[C@H](CCC(=O)O)NC(=O)[C@H](CCCNC(=N)N)NC(=O)[C@@H](NC(=O)[C@H](CC(N)=O)NC(=O)[C@H](CC(N)=O)NC(=O)[C@H](CC(N)=O)NC(=O)[C@@H]1CCCN1C(=O)[C@H](CCCNC(=N)N)NC(=O)[C@@H](NC(=O)[C@H](C)NC(=O)[C@H](Cc1ccc(O)cc1)NC(=O)[C@H](CCSC)NC(=O)[C@H](C)NC(=O)[C@H](CCCCN)NC(=O)CNC(=O)[C@@H](NC(=O)[C@@H](NC(=O)[C@H](CCC(N)=O)NC(=O)[C@H](Cc1c[nH]c2ccccc12)NC(=O)[C@H](CCSC)NC(=O)[C@H](CC(N)=O)NC(=O)[C@@H](NC(=O)[C@@H](NC(=O)[C@H](CCC(N)=O)NC(=O)[C@@H](N)CCCCN)[C@@H](C)CC)[C@@H](C)CC)C(C)C)C(C)C)[C@@H](C)O)[C@@H](C)O)C(=O)NCC(=O)N1CCC[C@H]1C(=O)NCC(=O)N[C@@H](CCCNC(=N)N)C(=O)N[C@@H](C)C(=O)N[C@@H](Cc1ccccc1)C(=O)N[C@@H](Cc1ccc(O)cc1)C(=O)N[C@@H](C)C(=O)N[C@@H](CCCNC(=N)N)C(=O)N[C@@H](CCCNC(=N)N)C(=O)O` [C4(E9V)-V389.6P peptide alone] here?
Answer: extremely well tolerated

Question: Which results are given for “None: 30 μg Aβ1-42 peptide (SEQ ID NO:6) without adjuvant”?
Answer: Anti-Aβ1-42 Week 5 IgG Endpoint Titers, Geometric Mean (Aβ1-42 peptide): 12,976; Anti-Aβ1-42 Week 10 IgG2a Endpoint Titers, Geometric Mean (Aβ1-42 peptide): 5,910; Anti-Aβ1-42 Week 10 IgG Endpoint Titers, Geometric Mean (Aβ1-42 peptide): 21,426

B1: GM-CSF (10): recombinant murine granulocyte macrophage colony stimulating factor, given with Aβ1-42 peptide (protein, UniProt P01587 18-141, looked up)
Granulocyte-macrophage …: APTRSPITVTRPWKHVEAIKEALNLLDDMPVTLNEEVEVVSNEFSFKKLTCVQTRLKIFEQGLRGNFTKLKGALNMTASYYQTYCPPTPETDCETQVTTYADFIDSLKTFLTDIPFECKKPGQK
Question: Which results are given for B1?
Answer: Anti-Aβ1-42 Week 5 IgG1 Endpoint Titers, Geometric Mean (Aβ1-42 peptide): 8,654; Anti-Aβ1-42 Week 5 IgG2a Endpoint Titers, Geometric Mean (Aβ1-42 peptide): 25,554; Anti-Aβ1-42 Week 5 IgG Endpoint Titers, Geometric Mean (Aβ1-42 peptide): 214,497; Anti-Aβ1-42 Week 10 IgG1 Endpoint Titers, Geometric Mean (Aβ1-42 peptide): 8,483; Anti-Aβ1-42 Week 10 IgG2a Endpoint Titers, Geometric Mean (Aβ1-42 peptide): 64,910; Anti-Aβ1-42 Week 10 IgG Endpoint Titers, Geometric Mean (Aβ1-42 peptide): 1,049,414
